The assay has as its target T1, Gdi1 (yeast, UniProt P39958 1-451).
T1 sequence (looked up): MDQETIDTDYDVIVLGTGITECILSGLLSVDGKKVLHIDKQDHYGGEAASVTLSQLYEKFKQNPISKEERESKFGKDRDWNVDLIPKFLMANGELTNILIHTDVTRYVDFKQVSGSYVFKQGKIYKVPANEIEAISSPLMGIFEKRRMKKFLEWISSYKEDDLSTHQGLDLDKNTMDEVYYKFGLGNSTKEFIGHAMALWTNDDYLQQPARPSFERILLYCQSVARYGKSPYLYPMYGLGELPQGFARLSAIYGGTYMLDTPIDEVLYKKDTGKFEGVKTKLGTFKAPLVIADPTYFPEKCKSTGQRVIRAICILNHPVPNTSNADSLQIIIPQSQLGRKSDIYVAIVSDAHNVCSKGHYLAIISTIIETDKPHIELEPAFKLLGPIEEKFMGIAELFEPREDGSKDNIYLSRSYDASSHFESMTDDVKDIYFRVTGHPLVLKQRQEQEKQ
The assay can be described thus: SEC.

B1: prenylated Rab6-mantGDP (natural protein, S. cerevisiae, UniProt Q99260 1-215, looked up)
chain: MSRSGKSLTKYKIVFLGEQGVGKTSLITRFMYDTFDDHYQATIGIDFLSKTMYLDDKTIRLQLWDTAGQERFRSLIPSYIRDSRVAIIVYDITKRKSFEYIDKWIEDVKNERGDENVILCIVGNKSDLSDERQISTEEGEKKAKLLGAKIFMETSTKAGYNVKALFKKIAKSLPEFQNSESTPLDSENANSANQNKPGVIDISTAEEQEQSACQC
modifications: C-terminal cysteines prenylated (geranylgeranyl)
Regarding B1, the binding result is given as “binds”.

For the origin of these results see PMC11618376 (Nature Communications, 2024).
